Data: patent publication US20190111164A1
Where a chain is given by its changes, count along the chain named.

B1: 2F3 variant #6 (antibody, IgG1, V domains shown)
VH: QVQLLESGGGLVQPGGSLRLSCAASGFTFDSYAMSWVRQAPGKGLEWVSAISGSGASTYYADSVKGRFSISRDNSKNTLYLQMNSLRAEDTAVYYCAIRREYSGYAPFDYWGQGTLVIVSS
VL: DIVMTQTPSSLSASVGDRVTITCRASQGISSWLAWYQQKPEKAPRSLIYAASSLQSGVPSRFSGSGSGTDFTLTISSLQPEDFATYYCQQYISYPYTFGQGTKLEIK
B2: 2F3 variant #17v2 (antibody, IgG1, V domains shown)
VH: B1 VH with V2I, Q3T, L5R, A56H, S85N, I118T
VL: B1 VL
B3: 2F3 parent antibody (antibody, V domains shown)
VH: B1 VH with V2I, Q3T, L5R, A56D, I118T
VL: B1 VL

Key:
Test in all cases: glycopeptide microarray, antibody at 50 ug/mL
IgA-Pep11 = biological target: T1, IgA-Pep11
T1 sequence (peptide, Tn (GalNAc, marked *) on S3, S5 and T9): KPSPSTPPTPSC

IgA-Pep13 = biological target: T2, IgA-Pep13
T2 sequence (peptide, Tn (GalNAc, marked *) on S3 and T7): KPSTPPTPSPSC

PADRE Tn3b = biological target: PADRE Tn3b
Tn3 linker = biological target: Tn3 linker
B-MUC2 = biological target: T3, B-MUC2
T3 sequence (peptide, N-terminal acetyl; Tn (GalNAc, marked *) on T3; C-terminal amide): PTTTPLK

D-MUC2 = biological target: T4, D-MUC2
T4 sequence (peptide, N-terminal acetyl; Tn (GalNAc, marked *) on T2 and T3; C-terminal amide): PTTTPLK

Binder | RLU (IgA-Pep11) | RLU (IgA-Pep13) | RLU (PADRE Tn3b) | RLU (Tn3 linker) | RLU (B-MUC2) | RLU (D-MUC2)
B1 | 311 RLU | 253 RLU | -84 RLU | 21 RLU |  | 
B2 |  |  | 49 RLU | 24 RLU | 237 RLU | 179 RLU
B3 |  |  | 13 RLU | 8 RLU |  | 
